The results in this text go back to patent US20240132591A1 (PANDION OPERATIONS, published 2024).

Where “and” joins values, the source holds several entries; their conditions need not be identical. Equal entries are not always repeated.

Experiment [1] deals with T1, mouse MAdCAM (mouse, UniProt Q61826 22-365, limits assumed).
T1 construct: also called mouse MAdCAM-1
T1 sequence (looked up): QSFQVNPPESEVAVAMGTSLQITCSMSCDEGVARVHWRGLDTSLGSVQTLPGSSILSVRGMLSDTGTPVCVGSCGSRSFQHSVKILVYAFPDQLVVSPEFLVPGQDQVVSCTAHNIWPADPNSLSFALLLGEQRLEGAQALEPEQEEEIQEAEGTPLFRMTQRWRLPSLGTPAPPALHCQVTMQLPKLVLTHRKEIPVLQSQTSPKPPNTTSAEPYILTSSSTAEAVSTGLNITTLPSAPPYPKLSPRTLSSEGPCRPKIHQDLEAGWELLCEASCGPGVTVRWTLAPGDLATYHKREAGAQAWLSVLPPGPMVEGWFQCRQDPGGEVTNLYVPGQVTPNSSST
Nature of the experiment: BLI Octet. In general terms: BLI is a label-free optical method that tracks binding on a fibre tip over time.

The target of experiment [2] is T2, Human MAdCAM (human, UniProt Q13477 19-317, limits assumed).
T2 construct: also called huMAdCAM; human MAdCAM-1
T2 sequence (looked up): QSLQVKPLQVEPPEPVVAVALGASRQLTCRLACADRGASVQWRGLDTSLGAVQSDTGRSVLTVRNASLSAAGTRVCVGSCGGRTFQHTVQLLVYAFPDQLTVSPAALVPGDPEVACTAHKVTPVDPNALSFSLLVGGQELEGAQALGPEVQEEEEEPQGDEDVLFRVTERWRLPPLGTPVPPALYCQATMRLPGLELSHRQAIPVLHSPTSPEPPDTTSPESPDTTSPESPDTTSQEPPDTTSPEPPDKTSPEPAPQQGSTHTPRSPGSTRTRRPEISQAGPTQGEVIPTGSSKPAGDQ
The experiment can be described thus: BLI Octet.

The target in experiment [3] is T1, mouse MAdCAM. Nature of the experiment: BLI Octet, AHC capture.
Experiment [4] concerns the target T2, Human MAdCAM. Nature of the experiment: BLI Octet, AHC capture.
In another experiment the target is T3, cyno MAdCAM (cyno).
T3 construct: also called cynomolgus monkey MAdCAM-1
The experiment can be described thus: BLI Octet, AHC capture.

Experiment [5] addresses T4, Insulin (UniProt P01308 25-54; P01308 90-110).
T4 construct: Polyreactivity antigen; mature insulin has A and B chains; also called human insulin
Nature of the experiment: ELISA on insulin-coated plate. In general terms: In an ELISA, binding on a coated surface is turned into a signal by an enzyme label.

Experiment [6] deals with T4, Insulin. The experiment can be described thus: ELISA on insulin-coated plate, 100 nM. On the procedure: Non-specific DNA and Insulin binding is predictive of poor pharmacokinetics (PK). An immunosorbent plate was coated with dsDNA at a concentration of 1 μg/mL or Insulin at 5 μg/mL in PBS pH 7.4, 75 μl/well, and incubated overnight at 4° C. Wells were washed with PBS pH 7.4 containing 0.05% Tween-20 (wash buffer) three times, and then blocked with 200 μl/well 1% BSA in PBS pH 7.4 (block buffer) for two hours at room temperature. […] The diluted material was added to the DNA/insulin coated plate at 75 μl/well for 1 hour at room temperature. After three washes with wash buffer, a donkey anti-human FcY HRP conjugated polyclonal antibody, diluted to 1:5000 in assay buffer, was added to the plate at 75 μl/well for 1 hr at room temperature. After three washes with wash buffer and three washes with wash buffer (with no tween-20), the assay was developed with TMB, and stopped with 1N HCL. OD 450 nm was measured. The experiment included appropriate controls for non-specific binding of test articles to the plate/block in the absence of DNA or insulin.

As usually defined, the Kd is the concentration at which binding is half-saturated. A low value points to a tighter complex. What is called koff is the first-order rate constant of dissociation. In general, kon refers to a measure of how fast the partners come together. A low value points to slow association.

B1: PMAB1 (bispecific antibody, human IgG1, kappa)
heavy: EVQLLESGGGLVQPGGSLRLSCAASGFTFSNSDMSWVRQAPGKGLEWVSGITISGGSTYYADSVKGRFTISRDNSKNTLYLQMNSLRAEDTAVYYCARGRGGSGWLDYWGQGTLVTVSSASTKGPSVFPLAPSSKSTSGGTAALGCLVKDYFPEPVTVSWNSGALTSGVHTFPAVLQSSGLYSLSSVVTVPSSSLGTQTYICNVNHKPSNTKVDKKVEPKSCDKTHTCPPCPAPEAAGAPSVFLFPPKPKDTLMISRTPEVTCVVVDVSHEDPEVKFNWYVDGVEVHNAKTKPREEQYNSTYRVVSVLTVLHQDWLNGKEYKCKVSNKALPAPIEKTISKAKGQPREPQVYTLPPSREEMTKNQVSLTCLVKGFYPSDIAVEWESNGQPENNYKTTPPVLDSDGSFFLYSKLTVDKSRWQQGNVFSCSVMHEALHNHYTQKSLSLSPGGGGGSGGGGSGGGGSEVQLLESGGGLVQPGGSLRLSCAASGFTFSDFWMHWVRQAPGKGLEWISYISGDSGYTNYADSVKGRFTISRDNSKNTLYLQMNSLRAEDTAVYYCARDRPYYYYMDVWGKGTTVTVSSGGGGSGGGGSGGGGSGGGGSDIQMTQSPSSLSASVGDRVTITCRASQSVSRSLAWYQQKPGKAPKLLIYAASSLQSGVPSRFSGSGSGTDFTLTISSLQPEDFATYYCQQYKSYPVTFGQGTKVEIK
light: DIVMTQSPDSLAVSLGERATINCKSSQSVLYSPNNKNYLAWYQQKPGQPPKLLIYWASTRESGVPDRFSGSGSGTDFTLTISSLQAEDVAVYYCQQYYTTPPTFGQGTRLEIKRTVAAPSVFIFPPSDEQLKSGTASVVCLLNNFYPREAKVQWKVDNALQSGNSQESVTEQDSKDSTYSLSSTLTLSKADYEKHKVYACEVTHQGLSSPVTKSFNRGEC
notes: also called Parental molecule; parental PMAB1
In the case of B1, the Kd is 124 nM with mouse MAdCAM [1]; 37.6 nM with Human MAdCAM [2]; 138 nM with mouse MAdCAM [3]; 135 nM and 115 nM and 116 nM and 62.8 nM in the experiment with Human MAdCAM [4]. Further, the koff with mouse MAdCAM [1] was 0.0463 s⁻¹; with Human MAdCAM [2], 0.0398 s⁻¹; with mouse MAdCAM [3], 0.0204 s⁻¹; with Human MAdCAM [4] it was 0.0341 s⁻¹ and 0.0351 s⁻¹ and 0.0276 s⁻¹ and 0.0365 s⁻¹. Also, the on-rate constant (kon) with mouse MAdCAM [1] was 374000 M⁻¹ s⁻¹; in the experiment with Human MAdCAM [2] it was 1.06e+06 M⁻¹ s⁻¹; with mouse MAdCAM [3], 148000 M⁻¹ s⁻¹; in the experiment with Human MAdCAM [4], 252000 M⁻¹ s⁻¹ and 306000 M⁻¹ s⁻¹ and 238000 M⁻¹ s⁻¹ and 581000 M⁻¹ s⁻¹. For the same molecule, the response with mouse MAdCAM [1] is 0.256; in the experiment with Human MAdCAM [2], 0.0839; with mouse MAdCAM [3], 0.139.

B2: PRNT1 (antibody, human IgG1, kappa)
heavy: EVQLLESGGGLVQPGGSLRLSCAASGFTFSDFWMHWVRQAPGKGLEWISYISGDSGYTNYADSVKGRFTISRDNSKNTLYLQMNSLRAEDTAVYYCARDRPYYYYMDVWGKGTTVTVSSASTKGPSVFPLAPSSKSTSGGTAALGCLVKDYFPEPVTVSWNSGALTSGVHTFPAVLQSSGLYSLSSVVTVPSSSLGTQTYICNVNHKPSNTKVDKKVEPKSCDKTHTCPPCPAPEAAGAPSVFLFPPKPKDTLMISRTPEVTCVVVDVSHEDPEVKFNWYVDGVEVHNAKTKPREEQYNSTYRVVSVLTVLHQDWLNGKEYKCKVSNKALPAPIEKTISKAKGQPREPQVYTLPPSREEMTKNQVSLTCLVKGFYPSDIAVEWESNGQPENNYKTTPPVLDSDGSFFLYSKLTVDKSRWQQGNVFSCSVMHEALHNHYTQKSLSLSPGGGGGSAPTSSSTKKTQLQLEHLLLDLQMILNGINNYKNPKLTRMLTFKFYMPKKATELKHLQCLEEELKPLEEALNLAPSKNFHLRPRDLISDINVIVLELKGSETTFMCEYADETATIVEFINRWITFSQSIISTLT
light: DIQMTQSPSSLSASVGDRVTITCRASQSVSRSLAWYQQKPGKAPKLLIYAASSLQSGVPSRFSGSGSGTDFTLTISSLQPEDFATYYCQQYKSYPVTFGQGTKVEIKRTVAAPSVFIFPPSDEQLKSGTASVVCLLNNFYPREAKVQWKVDNALQSGNSQESVTEQDSKDSTYSLSSTLTLSKADYEKHKVYACEVTHQGLSSPVTKSFNRGEC
notes: also called parent PRNT1; parental molecule PRNT1
Consider B2, for which binding with cyno MAdCAM was put at a Kd of 13 nM.

B3: MIAB151 (antibody, human IgG1, kappa)
heavy: EVQLLESGGGLVQPGGSLRLSCAASGFTFSDFWMHWVRQAPGKGLEWISYISGDSGYTNYADSVKGRFTISRDNSKNTLYLQMNSLRAEDTAVYYCARDRPYYYYMDVWGKGTTVTVSSASTKGPSVFPLAPSSKSTSGGTAALGCLVKDYFPEPVTVSWNSGALTSGVHTFPAVLQSSGLYSLSSVVTVPSSSLGTQTYICNVNHKPSNTKVDKKVEPKSCDKTHTCPPCPAPEAAGAPSVFLFPPKPKDTLMISRTPEVTCVVVDVSHEDPEVKFNWYVDGVEVHNAKTKPREEQYNSTYRVVSVLTVLHQDWLNGKEYKCKVSNKALPAPIEKTISKAKGQPREPQVYTLPPSREEMTKNQVSLTCLVKGFYPSDIAVEWESNGQPENNYKTTPPVLDSDGSFFLYSKLTVDKSRWQQGNVFSCSVMHEALHNHYTQKSLSLSPGGGGGSAPTSSSTKKTQLQLEHLLLDLQMILNGINNYKNPKLTRMLTFKFYMPKKATELKHLQCLEEELKPLEEALNLAPSKNFHLRPRDLISDINVIVLELKGSETTFMCEYADETATIVEFINRWITFSQSIISTLT
light: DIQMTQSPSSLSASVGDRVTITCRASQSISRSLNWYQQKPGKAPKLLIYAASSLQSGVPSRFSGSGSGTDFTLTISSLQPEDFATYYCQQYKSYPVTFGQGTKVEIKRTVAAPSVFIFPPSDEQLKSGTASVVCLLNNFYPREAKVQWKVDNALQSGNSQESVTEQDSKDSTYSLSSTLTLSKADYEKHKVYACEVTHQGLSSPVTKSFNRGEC
In the experiment with Human MAdCAM [4], B3 gave a dissociation constant (Kd) of 2960 nM, a koff of 0.292 s⁻¹ and a kon of 98700 M⁻¹ s⁻¹. Also, in the experiment with Insulin [5], the binding result is reported as “no binding (tested: 100 nM)”. For the same molecule, the Insulin polyreactivity score with Insulin [6] came out at 3.63.

B4: MIAB169 (antibody, human IgG1, kappa)
heavy: EVQLLESGGGLVQPGGSLRLSCAASGFTFSDFWMHWVRQAPGKGLEWISYISGDSGYTNYADSVKGRFTISRDNSKNTLYLQMNSLRAEDTAVYYCARDRPYYYIMDVWGKGTTVTVSSASTKGPSVFPLAPSSKSTSGGTAALGCLVKDYFPEPVTVSWNSGALTSGVHTFPAVLQSSGLYSLSSVVTVPSSSLGTQTYICNVNHKPSNTKVDKKVEPKSCDKTHTCPPCPAPEAAGAPSVFLFPPKPKDTLMISRTPEVTCVVVDVSHEDPEVKFNWYVDGVEVHNAKTKPREEQYNSTYRVVSVLTVLHQDWLNGKEYKCKVSNKALPAPIEKTISKAKGQPREPQVYTLPPSREEMTKNQVSLTCLVKGFYPSDIAVEWESNGQPENNYKTTPPVLDSDGSFFLYSKLTVDKSRWQQGNVFSCSVMHEALHNHYTQKSLSLSPGGGGGSAPTSSSTKKTQLQLEHLLLDLQMILNGINNYKNPKLTRMLTFKFYMPKKATELKHLQCLEEELKPLEEALNLAPSKNFHLRPRDLISDINVIVLELKGSETTFMCEYADETATIVEFINRWITFSQSIISTLT
light: DIQMTQSPSSLSASVGDRVTITCRASQSVSRSLAWYQQKPGKAPKLLIYAASSLQSGVPSRFSGSGSGTDFTLTISSLQPEDFATYYCQQYKSYPVTFGQGTKVEIKRTVAAPSVFIFPPSDEQLKSGTASVVCLLNNFYPREAKVQWKVDNALQSGNSQESVTEQDSKDSTYSLSSTLTLSKADYEKHKVYACEVTHQGLSSPVTKSFNRGEC
notes: Y105I variant; also called MIAB169-CHO; MIAB169-HEK
Consider B4, for which, in the experiment with cyno MAdCAM, binding was put at a Kd of 153 nM. Moreover, in the experiment with Human MAdCAM [4], the Kd was 266 nM and 340 nM; the “fold lower affinity than PRNT1” value is 10 fold; the koff stood at 0.0738 s⁻¹; the kon came out at 278000 M⁻¹ s⁻¹. In addition, in the experiment with Insulin [5], the binding result is “no binding (tested: 100 nM)”.

B5: MIAB153 (antibody, human IgG1, kappa)
heavy: EVQLLESGGGLVQPGGSLRLSCAASGFTFSDFWMHWVRQAPGKGLEWISYISGDSGYTNYADSVKGRFTISRDNSKNTLYLQMNSLRAEDTAVYYCARDRPYYYYMDVWGKGTTVTVSSASTKGPSVFPLAPSSKSTSGGTAALGCLVKDYFPEPVTVSWNSGALTSGVHTFPAVLQSSGLYSLSSVVTVPSSSLGTQTYICNVNHKPSNTKVDKKVEPKSCDKTHTCPPCPAPEAAGAPSVFLFPPKPKDTLMISRTPEVTCVVVDVSHEDPEVKFNWYVDGVEVHNAKTKPREEQYNSTYRVVSVLTVLHQDWLNGKEYKCKVSNKALPAPIEKTISKAKGQPREPQVYTLPPSREEMTKNQVSLTCLVKGFYPSDIAVEWESNGQPENNYKTTPPVLDSDGSFFLYSKLTVDKSRWQQGNVFSCSVMHEALHNHYTQKSLSLSPGGGGGSAPTSSSTKKTQLQLEHLLLDLQMILNGINNYKNPKLTRMLTFKFYMPKKATELKHLQCLEEELKPLEEALNLAPSKNFHLRPRDLISDINVIVLELKGSETTFMCEYADETATIVEFINRWITFSQSIISTLT
light: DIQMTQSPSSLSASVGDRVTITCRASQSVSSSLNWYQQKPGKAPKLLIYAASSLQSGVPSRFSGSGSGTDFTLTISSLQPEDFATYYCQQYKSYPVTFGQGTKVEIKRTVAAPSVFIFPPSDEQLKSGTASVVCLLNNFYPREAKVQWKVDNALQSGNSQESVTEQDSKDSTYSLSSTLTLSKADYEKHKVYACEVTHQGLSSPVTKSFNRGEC
In the experiment with Human MAdCAM [4], B5 gave a Kd of 8360 nM, a koff of 0.543 s⁻¹ and a kon of 64800 M⁻¹ s⁻¹. In addition, the binding result in the experiment with Insulin [5] is given as “no binding (tested: 100 nM)”. Further, the Insulin polyreactivity score with Insulin [6] was 2.46.
